{
  "source": "the DeepSol protein solubility set",
  "data": [
    {"assay": "soluble on expression in E. coli; label from the status in PepcDB or PDB records", "values": [
      {"sequence": "MTDLNKHIKQAQTQRKQLLEESRELHREKLLVQAENRFFLEYLTNKTEEYTEQPEKVWNSYLQKSGEIERRRQESASRYAEQISVLKTALLQKENIQSSLKRKLQAMRDIAILKEKQEKEIQTLQEETKKVQAETASKTREVQAQLLQEKRLLEKQLSEPDRRLLGKRKRRELNMKAQALKLAAKRFIFEYSCGINRENQQFKKELLQLIEQAQKLTATQSHLENRKQQLQQEQWYLESLIQARQRLQGSHNQCLNRQDVPKTTPSLPQGTKSRINPK", "soluble on expression in E. coli": "not soluble"},
      {"sequence": "ENLMQVYQQARLSNPELRKSAADRDAAFEKINEARSPLLPQLGLGADYTYSNGYRDANGINSNATSASLQLTQSIFDMSKWRALTLQEKAAGIQDVTYQTDQQTLILNTATAYFNVLNAIDVLSYTQAQKEAIYRQLDQTTQRFNVGLVAITDVQNARAQYDTVLANELTARNNLDNAVEQLRQITGNYYPELAALNVENFKTDKPQPVNALLKEAEKRNLSLLQARLSQDLAREQIRQAQDGHLPTLDLTASTGISDTSYSGSKTRGAAGTQYDDSNMGQNKVGLSFSLPIYQGGMVNSQVKQAQYNFVGASEQLESAHRSVVQTVRSSFNNINASISSINAYKQAVVSAQSSLDAMEAGYSVGTRTIVDVLDATTTLYNAKQELANARYNYLINQLNIKSALGTLNEQDLLALNNALSKPVSTNPENVAPQTPEQNAIADGYAPDSPAPVVQQTSARTTTSNGHNPFRN", "soluble on expression in E. coli": "soluble"},
      {"sequence": "MGHHHHHHSHMFVSDFRKEFYEVVQSQRVLLFVASDVDALCACKILQALFQCDHVQYTLVPVSGWQELETAFLEHKEQFHYFILINCGANVDLLDILQPDEDTIFFVCDTHRPVNVVNVYNDTQIKLLIKQDDDLEVPAYEDIFRDEEED", "soluble on expression in E. coli": "soluble"},
      {"sequence": "MLRLLLRHHFHCLLLCAVWATPCLASPWSTLTANQNPSPPWSKLTYSKPHDAATFYCPFLYPSPPRSPLQFSGFQQVSTGPECRNETLYLLYNREGQTLVERSSTWVKKVIWYLSGRNQTILQRMPQTASKPSDGNVQISVEDAKIFGAHMVPKQTKLLRFVVNDGTRYQMCVMKLESWAHVFRDYSVSFQVRLTFTEANNQTYTFCTHPNLIVLEHHHHHH", "soluble on expression in E. coli": "not soluble"},
      {"sequence": "MGSDKIHHHHHHMSFEKTSELIEKSRELQEVYQQLVEDVGLDLWRFCRYLTGSPWDGEDLYQETLVKAFGSLYQRWQPTNPKAYLFRIATNTWIDQCRKAKRIVGTVDEMEGPVEEFSNDLELEHAFTRLFTLFPPRQVAVFLLKDVFAFTAEEVASMVRSTSNGVYATSSRVRKKLKETASLEEELSSNGRPSPEQSEVIQQYLEAFNAGDLGKLFDLMSDEVHIDASLGFQEYSKEEMKKGSMQYGLPGFRAEPFVLWGKTVLVVLVDRDAGPLIHDIQFQEIENGKIVYHKSYYFCKEFLMGAAKELQLQVQLDKAAVHWRHSLDEGEL", "soluble on expression in E. coli": "not soluble"},
      {"sequence": "MGSDKIHHHHHHAGKQNEVELVAEKQLAFPLDEQTYYLSKSMFQFEENGKEYLHFENTQKSLYDIVIFDIENQQIAKRIPLHKTGPNGLPAVFGSRPSPDSQYILVAQNNISRLSSINSQGEIIRNYNFQTPEGRFTPLSFGSYYNAPAFIKDSCIFLRQEILKPDMKKEDWPRTHMFASQDLRTGEVKWIPIFYPPIFKEEYDNIAGGYGFSYDYNYKESRLVCGFFGYDSLMVTDDLKHIRWYNAKSRYLKSMKPKLGNSMEGINAIIKLNENPRYWHIMYDKYRNVYYRFAEMPYKLAPNESPYETPKGKEFSVIVLNADFEIIGETKFPGKKYFYKMSFVGREGLYISENNLENPQFDENKLVFTCFKIKNASPNK", "soluble on expression in E. coli": "not soluble"},
      {"sequence": "ESRSQISRRNQDMLLSVLDLEKMTVDDIMVPRSEIIGIDINDDWKSILRQLSHSPHGRIVLYRDSLDDAISMLRVREAWRLMSEKKEFTKETMLRAADEIYFVPEGTPLSTQLVKFQRNKKKVGLVVNEYGDIQGLVTVEDILE", "soluble on expression in E. coli": "not soluble"},
      {"sequence": "MGSDKIHHHHHHAPRTPPATDAWSGFRQLFELDPHYAHFANFLITSHPRPVREAIASLRAQLDQHPARCVEWDTQSEWKHEAEVREWAGRYLEVKPRQIALTGSTTEGLGMIYGGLRLNPQQEILTTEHEHYSTRNILAYRSQRDGTQVRKLRLFDDPAKVSDDQVLSTIAAAIKPQTRVLGMTWVHSGSGVKLPVGQIGALVHEANRNRDENDRILYVIDGVHGFGVEDMRFADLQCDYFIAGTHKWMFGPRGTGIICAASTELKHLTPTFATFSENEDFATTMTPGGYHAFEHRWALGKAFELHLQHGKAAIQARIHGLNDYLKERLAQHRAIELVTPRSPNHSAGFTFFRVKGQDVEAIAAHLNSQRIVVDAVDRDVGPVVRTAPGLLNTEAEIDRLVDVLGQRLRA", "soluble on expression in E. coli": "not soluble"},
      {"sequence": "SESQEEIIHNIARHLAQIGDEMDHNIQPTLVRQL", "soluble on expression in E. coli": "soluble"},
      {"sequence": "MSLENKRILITGGAGFIGSNMVEHLLPKNEVTVIDNLSITDDRYIKKFYDNPNFKFIKKDILNGIDGYHYDIVVHLAADSDVRNGSSNPALDMKVNVEGTISVLEMMRKSDIKDILFASSSTVYGEAKVIPTPENYGPLLPISSYGASKLAAEAFISAYASYYGFNALLFRFANVVGKNSTHGVIFDFINKLKNNKKELEVLGDGTQAKSYIHVEDLIGSMIYVYEHVKGVEPFNLGNDDVTSVDKIAKFVLEAMGLKDTAIVHRGGYNGRGWPGDVKYAMMDIAKLKKTGWKNKYSSDEAVKKSINEVMNQILEGHHHHHH", "soluble on expression in E. coli": "soluble"},
      {"sequence": "MSLYGKRLVVFAPLYVSNYCVNNCTYCGYKHCNDELKRKKLNKEQLIEEVKVLESLGHKRIALEAGEDPVNAPLDYILDCIKSIYSIKFDNGSIRRINVNIAATSVEDYKRLKDAEIGTYILFQETYHKPTYERLHVSGPKHNYNYHTTAMHRAREAGIDDIGMGVLYGLYDYKYETLAMLMHAMDLEETTGVGPHTLSVPRIRPAENVSLENYPYLVDDEDFKKIVAILRLAVPYAGLILSTREEPGLRDEIIALGVSQVSTGSCTGVGGYSESYIDPEEKPQFEVGDHRSPVEMIESLMEAGYIPSYCTACYREGRTGERFMDIVKSGELYKICEANALITLKEFIDDYGTDRTREIGDKLIKKSIDEIDNESFRKSVEEKINKISNGTRDLRFEGHHHHHH", "soluble on expression in E. coli": "not soluble"},
      {"sequence": "MGHHHHHHSHMVSPSKAVIVPGKIGGDETTHGWYGWVKKELEKIPGFQCLAKNMPDPITARESIWLPFMETELHCDEKTIIIGHSSGAIAAMRYAETHRVYALILVSAYTSEFGDENERASGYFSRPWQWEKIKANCPHIVQFGSTDDPFLPWKEQQEVADSWTPNCTNSLTVVTFRTQSSMN", "soluble on expression in E. coli": "not soluble"},
      {"sequence": "MTIETIKRIIEEENVRFIRLQFTDINGTLKNLEITPDVFLESWEDGIMFDGSSIEGFVRIEESDMYLKPVLDTFAVLPWTVDGAKSARVICDVYTPDGKPFEGDPRYRLRRMMEKAEQLGYTPYAGPEMEFFILPINEKGEPVPEFLDHGGYFDLLPLSKVEEIRRDIAIALEKMGITVEATHHEVAPSQHEVDFRYDTFLRTADNAQTVKLVIKTMAIFHGYHATFMPKPFYGVNGSGMHVHMSLFRGDKNAFYDPDDPLGLSKELRYFVGGILKHAKALAAVTNPTINSYKRLVPGYEAPVYISWSVGNRSALIRIPKARGKATRLEYRSPDPSCNIYLAFAAILAAGLDGIINKIEPPAPVEENIYHMTSERREELNIESLPGSLKEAVEELKKDDVIIDALGEHIFEKFVEAAEKDWKEFSTYVTNWELQRYLYL", "soluble on expression in E. coli": "soluble"},
      {"sequence": "AHHHHHHGSNTEKYLAKGLEDVYIDQTNICYIDGKEGKLYYRGYSVEELAELSTFEEVVYLLWWGKLPSLSELENFKKELAKSRGLPKEVIEIMEALPKNTHPMGALRTIISYLGNIDDSGDIPVTPEEVYRIGISVTAKIPTIVANWYRIKNGLEYVPPKEKLSHAANFLYMLHGEEPPKEWEKAMDVALILYAEHEINASTLAVMTVGSTLSDYYSAILAGIGALKGPIHGGAVEEAIKQFMEIGSPEKVEEWFFKALQQKRKIMGAGHRVYKTYDPRARIFKKYASKLGDKKLFEIAERLERLVEEYLSKKGISINVDYWSGLVFYGMKIPIELYTTIFAMGRIAGWTAHLAEYVSHNRIIRPRLQYVGEIGKKYLPIELRR", "soluble on expression in E. coli": "not soluble"},
      {"sequence": "LQTVCLKGTKHMKCFLAFTQTKTFHEASEDCISRGGTLSTPQTGSENDALYEYLRQSVGNEAEIWLGLNKRWSRYFWVDMTGTRIAYKNWEHSSDAQPDPSNWENCAVLSGAANGKWFGKRCRDQLPYICQFGI", "soluble on expression in E. coli": "soluble"},
      {"sequence": "GKDWNWNVGGVLGYNKNKVTYVNVKAPAIFLQFDYPAAYPRVGVPYNAIYGYLWAGLDSKGQPQVYDSEGNIHVSSSPQKVEDAVYLGTSVPVYSGAINTNLRYKNWELAAQLLFEGGHKMRNTNIAYPGLGVTSKDVSKRWRQPGDEAYTDVPRYVPSESKDYNSYSSDLYSKASIHVLDADNWRLKNLSVTYHVPASVCQKFYVKNARIMLGMENVFTLAKSRDVKWMLGGYSKPNYLCNVNLNF", "soluble on expression in E. coli": "not soluble"},
      {"sequence": "MEKAYDFEVEAPPEVVRDYLMNPENLMKYIPHFKDLKRVDDGWELYVSWLFTIKLKVKRVFTNTDIIYLVEKSEGLIKIKSSLRFTIFPSKGGITIVRLVFFYDGPFESIVKGQADAFYRKGKEVFKTEMTKEKRIQEEQNGVKGEVSIYEMKTIFSGKINKDELEKYLEIAMVKSVNSTVVVILSDERNIIEIKFKGGELVAQKGDLDSLSSPITILIKQLEHHHHHH", "soluble on expression in E. coli": "soluble"},
      {"sequence": "MGSDKIHHHHHHMTREKSSYAVQTVEKALDILETLTDESRHATLPYLAEKLDLSRNKAFRLLATLESKGLVERDETSGVYRLGISSVELAQRLLNSTSLIRHAHPIMERLARKHDEAVYIAVLKGDEVLFLDMVDCEQAIKTAPLVGRRFPFFSNAAGKAIRALESTDLLDRFLKKRGRNGGPFDPAALQQELKAVREHGVAVDFDGLGEGIVSVAVAVRDYAGKVIGALTMLGPSFRMMASRMENEIIPSLREGAEILSMKFGYAKL", "soluble on expression in E. coli": "not soluble"},
      {"sequence": "SNSGEPAPVLSSPTPTDLSTFLSFPSPEKLLRLGPKVSVLIVQQTDTSDPEKVVSAFLKVASVFRDDASVKTAVLDAIDALMKKAFSCSSFNSNTFLTRLLIHMGLLKSEDKIKAIPSLHGPLMVLNHVVRQDYFPKALAPLLLAFVTKPNGALETCSFARHNLLQTLYNI", "soluble on expression in E. coli": "soluble"},
      {"sequence": "MSLIDAEHIEIALDKRYLRESYLPERALDDILDGQVIIETQGEQVGQVNGLTVIEVTGHPMPYGEPARISCVIHFGDGDIADVERKVELGGNLHAKGMMIMQAFVSSALNLDGSLPFSASIVFEQSYSEVDGDSASLAELCSLVSALSEYPIDQQIAVTGAVDQFGRVQAVGGLNEKIEGFYRVCCHQGLTGEQGVILPSSNLKHLALHKSVVESIKNGEFNIWPVSTVDEAIPLLMGKPFRGEDEDSVIAKIAERIDNFEKLVEGHHHHHH", "soluble on expression in E. coli": "soluble"},
      {"sequence": "MDYTIVVSATASDAAPLKFLAPYSGCAIGEHFLDNGKHALIIFDDLSKKAANCHVVCRTDEIELDILNRMEEDIKLHPLTWYDIWSSLETKIKVVRARIPKSLSRR", "soluble on expression in E. coli": "not soluble"},
      {"sequence": "SVRRKSCIVKEMEKMKNKREEKRAQNSELRIKRAQEYDSSFPNWEFARMIKEFRVTMECSPLTVTDPIEEHRICVCVRKRPLNKQELAKKEIDVISVPSKCLLLVHEPKLKVDLTKYLENQAFCFDFAFDETASNEVVYRFTARPLVQTIFEGGKATCFAYGQTGSGKTHTMGGDLSGKSQNASKGIYAMASRDVFLLKNQPRYRNLNLEVYVTFFEIYNGKVFDLLNKKAKLRVLEDSRQQVQVVGLQEYLVTCADDVIKMINMGSACRTSGQTFANSNSSRSHACFQILLRTKGRLHGKFSLVDLAGNERGADTSSADRQTRMEGAEINKSLLALKECIRALGQNKAHTPFRESKLTQVLRDSFIGENSRTCMIAMISPGISSCEYTLNTLRYADRVKELSHHHHHHH", "soluble on expression in E. coli": "soluble"}
    ]}
  ]
}
